Experimental data published in IntAct's records for PubMed 29892012.

B1: U3 small nucleolar RNA-associated protein 25 homolog (Homo sapiens), Q68CQ4 (parent)
chain: MGKRGSRSQSQLLNTLTKKQKKHLRDFGEEHPFYDRVSRKEAKPQICQLSESSDSSDSESDSESEPQQVSGYHRLLATLKNVSEEEEEDEEEEEEEDSIVDDAEMNDEDGGSDVSVEEEMAAESTESPENVALSADPEGKEDGEEPPGTSQTSPEEFTDAKHESLFSLETNFLEEESGDNSSLKASQDPFLQHVNKELKEKAIQAVATNPKTTHELKWPILGQLFFSSKFQKLETFKPPKDIDLKSLHLQKPLESTWTKTNSQFLSGPQKSSSPFTPLQKELFLIMNSYRDLFYPERTALKNGEEIRHVYCLHVINHILKANAQVLGNNSRRRSQKFGVGDDDDFRDQGLTRPKVLIVVPFREAALRVVQLFISLLEGDSKKKIIVSNKKRFQGEYGSDPEERPPNLKRPEDYEAVFVGNIDDHFRIGVAILQRSIRLYAPFYSSDILIASPLGLRTIIGGEGEKKRDFDFLSSIELLIIDQADIYLMQNWEHVLHLMNHMNLLPLDSHGVDFSRVRMWSLNNWSKYYRQTLLFGALQDAQINSVFNKYCVNMQGQVAVRNVPMTGSISHVLVQLPHVFQRMEAENLASVIDARFNFFVNKILPQYRDAVMSHTLIYIPSYFDFVRLRNYFKKEELNFTHICEYTQKSGVSRARHFFLQGEKQFLLFTERFHFYKRYTIKGIRNLIFYELPTYPHFYSEICNMLRATNRGEEATWTCTVLYSKYDAQRLAAVVGVERAAQMLQSNKNVHLFITGEK
B2: U3 small nucleolar RNA-associated protein 25 homolog (Homo sapiens), Q68CQ4 (parent)
chain: B1 chain
partner: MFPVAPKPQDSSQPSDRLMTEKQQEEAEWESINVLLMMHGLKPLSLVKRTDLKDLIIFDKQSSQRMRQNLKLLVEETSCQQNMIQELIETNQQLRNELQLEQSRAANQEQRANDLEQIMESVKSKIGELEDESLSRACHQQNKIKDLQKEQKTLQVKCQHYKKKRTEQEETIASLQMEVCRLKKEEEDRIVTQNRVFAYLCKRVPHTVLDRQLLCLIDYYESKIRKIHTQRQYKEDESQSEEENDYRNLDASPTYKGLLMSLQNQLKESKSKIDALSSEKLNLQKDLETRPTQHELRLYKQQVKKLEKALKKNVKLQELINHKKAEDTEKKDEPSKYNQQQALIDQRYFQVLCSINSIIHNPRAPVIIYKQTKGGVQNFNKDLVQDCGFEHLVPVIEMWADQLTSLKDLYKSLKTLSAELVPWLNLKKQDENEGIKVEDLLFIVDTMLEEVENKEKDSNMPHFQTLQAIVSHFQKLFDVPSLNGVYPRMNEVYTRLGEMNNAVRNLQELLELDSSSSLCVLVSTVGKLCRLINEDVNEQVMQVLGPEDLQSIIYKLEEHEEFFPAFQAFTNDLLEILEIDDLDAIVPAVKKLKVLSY
B3: U3 small nucleolar RNA-associated protein 25 homolog (Homo sapiens), Q68CQ4 (parent)
chain: B1 chain
partner: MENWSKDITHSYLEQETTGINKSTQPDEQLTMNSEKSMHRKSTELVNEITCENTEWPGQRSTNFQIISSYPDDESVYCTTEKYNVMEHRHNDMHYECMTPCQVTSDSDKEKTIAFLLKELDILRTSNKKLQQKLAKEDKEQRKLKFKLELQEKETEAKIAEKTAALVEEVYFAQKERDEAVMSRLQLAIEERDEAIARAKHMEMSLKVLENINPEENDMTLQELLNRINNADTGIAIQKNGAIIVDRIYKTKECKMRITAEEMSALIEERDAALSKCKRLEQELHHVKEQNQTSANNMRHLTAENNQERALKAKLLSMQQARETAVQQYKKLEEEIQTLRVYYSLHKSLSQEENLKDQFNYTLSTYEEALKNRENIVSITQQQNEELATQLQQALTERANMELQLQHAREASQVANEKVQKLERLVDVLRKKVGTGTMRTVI
B4: E3 ubiquitin-protein ligase TRIM17 (Homo sapiens), Q9Y577 (parent)
chain: MEAVELARKLQEEATCSICLDYFTDPVMTTCGHNFCRACIQLSWEKARGKKGRRKRKGSFPCPECREMSPQRNLLPNRLLTKVAEMAQQHPGLQKQDLCQEHHEPLKLFCQKDQSPICVVCRESREHRLHRVLPAEEAVQGYKLKLEEDMEYLREQITRTGNLQAREEQSLAEWQGKVKERRERIVLEFEKMNLYLVEEEQRLLQALETEEEETASRLRESVACLDRQGHSLELLLLQLEERSTQGPLQMLQDMKEPLSRKNNVSVQCPEVAPPTRPRTVCRVPGQIEVLRGFLEDVVPDATSAYPYLLLYESRQRRYLGSSPEGSGFCSKDRFVAYPCAVGQTAFSSGRHYWEVGMNITGDALWALGVCRDNVSRKDRVPKCPENGFWVVQLSKGTKYLSTFSALTPVMLMEPPSHMGIFLDFEAGEVSFYSVSDGSHLHTYSQATFPGPLQPFFCLGAPKSGQMVISTVTMWVKG
partner: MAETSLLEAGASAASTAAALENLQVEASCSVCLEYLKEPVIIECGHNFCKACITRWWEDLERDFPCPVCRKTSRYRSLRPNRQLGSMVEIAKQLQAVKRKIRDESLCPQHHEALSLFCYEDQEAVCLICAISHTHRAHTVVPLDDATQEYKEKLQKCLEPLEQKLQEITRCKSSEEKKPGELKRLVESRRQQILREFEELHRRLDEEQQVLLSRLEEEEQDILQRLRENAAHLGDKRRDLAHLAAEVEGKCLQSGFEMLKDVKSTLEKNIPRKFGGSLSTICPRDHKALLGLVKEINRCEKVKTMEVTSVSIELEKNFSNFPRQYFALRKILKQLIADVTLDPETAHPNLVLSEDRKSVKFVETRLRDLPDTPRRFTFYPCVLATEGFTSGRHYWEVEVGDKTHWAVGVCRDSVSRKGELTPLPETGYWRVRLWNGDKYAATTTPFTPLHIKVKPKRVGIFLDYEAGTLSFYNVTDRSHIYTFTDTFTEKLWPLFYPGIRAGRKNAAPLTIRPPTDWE
B5: Galectin-8 (Homo sapiens), O00214 (parent)
chain: MMLSLNNLQNIIYNPVIPFVGTIPDQLDPGTLIVIRGHVPSDADRFQVDLQNGSSMKPRADVAFHFNPRFKRAGCIVCNTLINEKWGREEITYDTPFKREKSFEIVIMVLKDKFQVAVNGKHTLLYGHRIGPEKIDTLGIYGKVNIHSIGFSFSSDLQSTQASSLELTEISRENVPKSGTPQLRLPFAARLNTPMGPGRTVVVKGEVNANAKSFNVDLLAGKSKDIALHLNPRLNIKAFVRNSFLQESWGEEERNITSFPFSPGMYFEMIIYCDVREFKVAVNGVHSLEYKHRFKELSSIDTLEINGDIHLLEVRSW
partner: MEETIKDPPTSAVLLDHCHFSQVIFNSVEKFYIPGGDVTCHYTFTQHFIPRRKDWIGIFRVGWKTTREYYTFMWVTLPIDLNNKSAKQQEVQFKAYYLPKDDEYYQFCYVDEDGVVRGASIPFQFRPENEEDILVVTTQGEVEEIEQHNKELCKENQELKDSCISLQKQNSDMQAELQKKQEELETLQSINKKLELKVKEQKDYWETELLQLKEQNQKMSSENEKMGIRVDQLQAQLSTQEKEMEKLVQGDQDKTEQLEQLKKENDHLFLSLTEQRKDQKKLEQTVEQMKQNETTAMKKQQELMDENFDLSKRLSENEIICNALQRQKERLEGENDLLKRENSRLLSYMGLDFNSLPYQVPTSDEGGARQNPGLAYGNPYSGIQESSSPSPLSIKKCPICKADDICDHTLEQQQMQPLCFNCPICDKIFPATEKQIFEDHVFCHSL

Variants of: B1
Conditions: with rufy1_human RUFY1, Q96T51
rufy1_human RUFY1, Q96T51, sequence (Q96T51 whole entry): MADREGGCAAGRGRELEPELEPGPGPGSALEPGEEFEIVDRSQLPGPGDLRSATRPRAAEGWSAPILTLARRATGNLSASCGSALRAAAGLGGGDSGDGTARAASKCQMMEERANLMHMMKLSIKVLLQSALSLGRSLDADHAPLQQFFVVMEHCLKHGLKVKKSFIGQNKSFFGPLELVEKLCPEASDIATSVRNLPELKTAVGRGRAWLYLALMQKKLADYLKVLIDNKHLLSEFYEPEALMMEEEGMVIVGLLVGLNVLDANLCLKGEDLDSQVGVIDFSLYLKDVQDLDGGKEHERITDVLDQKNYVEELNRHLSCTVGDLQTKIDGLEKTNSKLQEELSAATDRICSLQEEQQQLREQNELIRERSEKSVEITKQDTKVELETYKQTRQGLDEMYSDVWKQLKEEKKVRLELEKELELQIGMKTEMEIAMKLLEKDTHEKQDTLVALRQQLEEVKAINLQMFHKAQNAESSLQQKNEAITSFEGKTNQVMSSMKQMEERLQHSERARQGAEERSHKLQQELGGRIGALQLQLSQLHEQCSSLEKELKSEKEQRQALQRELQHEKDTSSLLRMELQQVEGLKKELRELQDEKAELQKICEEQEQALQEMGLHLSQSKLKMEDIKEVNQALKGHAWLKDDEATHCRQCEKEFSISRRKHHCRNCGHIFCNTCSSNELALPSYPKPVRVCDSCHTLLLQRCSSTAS

| Variant | effect of a mutation on the interaction |
| --- | --- |
| D399E | with no effect |

Variants of: B2
Conditions: with cep70_human CEP70, Q8NHQ1

| Variant | effect of a mutation on the interaction |
| --- | --- |
| D399E | with no effect |

Variants of: B3
Conditions: with mipo1_human MIPOL1, Q8TD10

| Variant | effect of a mutation on the interaction |
| --- | --- |
| D399E | with no effect |

Variants of: B4
Conditions: with tri39_human TRIM39, Q9HCM9

| Variant | effect of a mutation on the interaction |
| --- | --- |
| MEAVELARKLQEEATCSICLDYFTDPVMTTCGHNFCRACIQLSWEKARGKKGRRKRKGSFPCPECREMSPQRNLLPNRLLTKVAEMAQQHPGLQKQDLCQEHHEPLKLFCQKDQSPICVVCRESREHRLHRVLPAEEAVQGYKLKLEEDMEYLREQITTTGNLQAREEQSLAEWQGKVKERRERIVLEFEKMNLYLVEEEQRLLQALETEEEETASRLRESVACLDRQGHSLELLLLQLEERSTQGPLQMLQDMKEPLSRKNNVSVQCPEVAPPTRPRTVCRVPGQIEVLRGFLEDVVPDATSAYPYLLLYESRQRRYLGSSPEGSGFCSKDRFVAYPCAVGQTAFSSGRHYWEVGMNITGDALWALGVCRDNVSRKDRVPKCPENGFWVVQLSKGTKYLSTFSALTPVMLMEPPSHMGIFLDFEAGEVSFYSVSDGSHLHTYSQATFPGPLQPFFCLGAPKSGQMVISTVTMWVKG [R159T] | with no effect |

Variants of: B5
Conditions: with caco2_human CALCOCO2, Q13137

| Variant | effect of a mutation on the interaction |
| --- | --- |
| MMLSLNNLQNIIYNPVIPFVGTIPDQLDPGTLIVIRGHVPSDADRFQVDLQNGSSMKPRADVAFHFNPRFKRAGCIVCNTLINEKWGREEITYDTPFKREKSFEIVIMVLKDKFQVAVNGKHTLLYGHRIGPEKIDTLGIYGKVNIHSIGFSFSSDLQSTQASSLELTEISRENVPKSGTPQLRLPFAARLNTTMGPGRTVVVKGEVNANAKSFNVDLLAGKSKDIALHLNPRLNIKAFVRNSFLQESWGEEERNITSFPFSPGMYFEMIIYCDVREFKVAVNGVHSLEYKHRFKELSSIDTLEINGDIHLLEVRSW [P194T] | with no effect |
